Experimental data published in patent US20090298167A1 (Pfizer, published 2009).

What was measured:
[1] = molecular target: T1, human IL-21R expressed on cells (human, UniProt Q9HBE5 20-538); assay: cell ELISA: CHO cells transiently expressing the receptor, antibody in conditioned medium, HRP anti-human IgG, A450
T1 construct: Transfected BaF3, TF1 and CHO cells; also native on primary human B and CD4+ T cells; also called hIL-21R; human IL-21R-BaF3 cells
Description: FIG. 6 depicts the binding of 21 anti-IL-21R IgGs to CHO cells transiently expressing human IL-21R (FIGS. 6a-c), rat IL-21R (FIGS. 6d-f), cynomolgus monkey IL-21R (FIGS. 6g-i), and human gamma common chain (FIGS. 6j-l). CHO cells were transiently transfected with IL-21R or the control gamma common chain, and binding was detected with HRP-conjugated anti-human IgG in a cell-based ELISA.
(§1) A subset of binding proteins was tested for binding to rat, cynomolgus monkey, human IL-21R, or human IL-2R-γ common subunit expressed transiently on the surfaces of CHO-PA-Dukx cells. Cells were transfected 48 hr prior to the assay. On the day of the assay, cells were washed gently 5× in PBS containing 0.9 mM CaCl₂ and 0.45 mM MgCl₂ (PBS/CaMg) on an automated plate washer (Titertek, Huntsville, Ala.), and blocked for 1 hr at RT in PBS/CaMg/5% nonfat dry milk. Conditioned media from transiently expressed anti-IL-21R IgGs were serially diluted in blocking buffer and added to the cells in the blocked plates for 1 hr at RT. Cells were washed 5× with PBS/CaMg and then incubated with horseradish peroxidase-conjugated anti-human IgG for 1 hr at RT. Cells were then washed 10× in PBS/CaMg and all of the wash buffer was removed. Cells were incubated with 100 μl TMB until the color reaction reached saturation, stopped with 100 μl of 0.18 M H₂SO₄, and read at A450 on a Perkin Elmer ENVISION™ plate reader.

[2] = molecular target: T1, human IL-21R expressed on cells; assay: cell ELISA on transfected CHO cells, 13 nM IgG
[3] = molecular target: T2, cynomolgus monkey IL-21R expressed on CHO cells (cynomolgus monkey); assay: cell ELISA on transfected CHO cells, 13 nM IgG
T2 construct: whole, on cells

[4] = molecular target: T3, rat IL-21R expressed on cells (rat); assay: cell ELISA on transfected CHO cells, 13 nM IgG
T3 construct: whole, on cells; Transiently transfected CHO-PA-Dukx cells

[5] = molecular target: T1, human IL-21R expressed on cells; assay: cell-based or functional assay
[6] = molecular target: T4, murine IL-21R expressed on cells (murine, UniProt Q9JHX3 20-529); assay: cell-based or functional assay
[7] = molecular target: T1, human IL-21R expressed on cells; assay: cell-based or functional assay; remark: listed apart in the source
human IL-13-His/FLAG = molecular target: T5, human IL-13-His/FLAG (human, UniProt P35225 35-146, limits assumed); assay: BIACORE: antibody captured on anti-human IgG, 50 nM analyte injected
T5 construct: Unrelated His/FLAG-tagged control; also called human IL-13-H/F
Description: (§2) The specificity of binding of a subset of transiently expressed anti-IL-21R binding proteins (here antibodies) was tested on a BIACORE™ 2000 surface plasmon resonance instrument. Anti-human-IgG, anti-murine immunoglobulin antibodies, and murine IL-21R-H/F were immobilized onto a research-grade carboxymethyl-dextran chip (CM5) using standard amine coupling. The sensor chip surface was activated with EDC/NHS for 7 min at a flow rate of 20 μl/min. The first flow cell was used as reference surface to correct for bulk refractive index, matrix effects, and nonspecific binding. […] Remaining activated groups were blocked with 1.0 M ethanolamine (pH 8.0). The molecular weights of the anti-human IgG and the anti-murine IgG were both 150 kD, and the molecular weight of the IL-21R monomer was 27 kD.
(§3) Conditioned media containing anti-IL-21R antibodies and antibody controls (murine anti-human IL-2Rβ and murine anti-human IL-4R(R&D Systems, Minneapolis, Minn.); human anti-human IL-13 (Wyeth, Cambridge, Mass.)) were diluted in HBS/EP buffer supplemented with 0.2% bovine serum and injected onto all four flow cells of the BIACORE™ chip, capturing 500-700 (RU) of antibody on the species-appropriate capture antibody. Following a 5 sec washing period, 50 nM solutions of a positive control protein (murine IL-21R-H/F), two human proteins related to IL-21R (human IL-2Rβ and human sIL-4R(R&D Systems)), or an unrelated His/FLAG-tagged protein (human IL-13-H/F), were injected over the captured antibodies on the chip. The association and dissociation phases were monitored for 120 and 180 sec, respectively, followed by two 5 μl injections of glycine (pH 1.5) to regenerate a fully active capturing surface. All binding experiments were done at 25° C. in HBS/EP buffer. Blank and buffer effects were subtracted for each sensorgram using double referencing.

human IL-2Rβ = molecular target: T6, human IL-2Rβ (human, UniProt P14784 27-239); assay: as above
T6 construct: Bought
T6 sequence (looked up): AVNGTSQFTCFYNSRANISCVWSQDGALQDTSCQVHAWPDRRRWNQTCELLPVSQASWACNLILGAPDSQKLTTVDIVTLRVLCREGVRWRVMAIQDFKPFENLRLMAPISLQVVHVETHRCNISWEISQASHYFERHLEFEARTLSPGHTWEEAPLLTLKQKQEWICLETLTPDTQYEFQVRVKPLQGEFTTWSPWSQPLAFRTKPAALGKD
Description: as §2, §3

human soluble IL-4R = molecular target: T7, human soluble IL-4R (human, UniProt P24394 26-231, limits assumed); assay: as above
T7 construct: soluble; also called human sIL-4R
Description: as §2, §3

[8] = molecular target: T8, human gamma common chain expressed on CHO cells (human, UniProt P31785 23-369); assay: cell ELISA on transfected CHO cells, 13 nM IgG
T8 construct: whole, on cells; Control protein; also called human IL-2R-γ common subunit; human gamma (γ) common chain
T8 sequence (looked up): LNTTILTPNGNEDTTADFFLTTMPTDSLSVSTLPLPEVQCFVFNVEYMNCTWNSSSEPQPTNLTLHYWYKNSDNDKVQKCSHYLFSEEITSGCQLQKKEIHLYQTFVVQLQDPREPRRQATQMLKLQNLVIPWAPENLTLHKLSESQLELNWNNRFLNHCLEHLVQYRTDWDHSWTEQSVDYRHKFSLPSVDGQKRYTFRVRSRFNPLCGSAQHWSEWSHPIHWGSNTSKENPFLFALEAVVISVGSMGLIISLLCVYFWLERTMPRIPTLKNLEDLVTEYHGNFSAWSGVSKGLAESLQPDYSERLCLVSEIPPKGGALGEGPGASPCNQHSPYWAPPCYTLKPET

[9] = molecular target: T4, murine IL-21R expressed on cells; assay: cell-based or functional assay; remark: listed apart in the source
[10] = molecular target: T2, cynomolgus monkey IL-21R expressed on …; assay: cell ELISA: CHO cells transiently expressing the receptor, antibody in conditioned medium, HRP anti-human IgG, A450
Description: as §1

[11] = molecular target: T1, human IL-21R expressed on cells; assay: cell-based or functional assay; remark: listed apart in the source
murine IL-21 = murine IL-21 (murine, UniProt Q9ES17 18-146); assay: cell-based or functional assay

T1 sequence (Q9HBE5 20-538 limits assumed): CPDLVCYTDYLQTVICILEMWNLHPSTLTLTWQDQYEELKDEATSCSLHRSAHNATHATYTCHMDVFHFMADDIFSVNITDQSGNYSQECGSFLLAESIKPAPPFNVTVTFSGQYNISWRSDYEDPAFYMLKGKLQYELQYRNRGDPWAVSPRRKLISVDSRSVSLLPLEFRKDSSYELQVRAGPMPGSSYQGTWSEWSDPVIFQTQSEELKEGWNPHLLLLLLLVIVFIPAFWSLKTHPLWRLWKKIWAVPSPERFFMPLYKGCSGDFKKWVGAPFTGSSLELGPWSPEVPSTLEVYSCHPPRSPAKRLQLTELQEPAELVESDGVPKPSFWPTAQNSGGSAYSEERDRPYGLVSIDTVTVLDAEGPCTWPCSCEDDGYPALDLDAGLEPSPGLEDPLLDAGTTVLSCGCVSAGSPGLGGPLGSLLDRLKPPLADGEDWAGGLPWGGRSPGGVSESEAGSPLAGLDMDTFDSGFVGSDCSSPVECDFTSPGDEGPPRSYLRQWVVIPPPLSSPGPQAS
T4 sequence (Q9JHX3 20-529 limits assumed): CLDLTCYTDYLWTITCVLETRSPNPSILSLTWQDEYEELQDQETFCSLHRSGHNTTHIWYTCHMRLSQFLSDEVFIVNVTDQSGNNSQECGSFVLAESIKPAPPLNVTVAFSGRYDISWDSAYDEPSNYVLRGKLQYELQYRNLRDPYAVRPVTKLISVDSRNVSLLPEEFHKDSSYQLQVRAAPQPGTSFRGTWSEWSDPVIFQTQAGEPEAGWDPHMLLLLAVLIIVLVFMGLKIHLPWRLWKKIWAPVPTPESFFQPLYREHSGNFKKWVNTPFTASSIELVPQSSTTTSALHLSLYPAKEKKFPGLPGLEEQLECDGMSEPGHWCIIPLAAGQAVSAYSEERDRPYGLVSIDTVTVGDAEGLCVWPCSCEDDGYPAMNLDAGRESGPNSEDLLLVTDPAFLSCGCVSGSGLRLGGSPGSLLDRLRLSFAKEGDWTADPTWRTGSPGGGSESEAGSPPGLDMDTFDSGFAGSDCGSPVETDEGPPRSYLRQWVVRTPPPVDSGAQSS
T5 sequence (P35225 35-146 limits assumed): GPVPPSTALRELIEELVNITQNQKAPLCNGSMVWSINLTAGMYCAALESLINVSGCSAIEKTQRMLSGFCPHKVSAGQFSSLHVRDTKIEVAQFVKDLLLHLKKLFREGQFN
T7 sequence (P24394 26-231 limits assumed): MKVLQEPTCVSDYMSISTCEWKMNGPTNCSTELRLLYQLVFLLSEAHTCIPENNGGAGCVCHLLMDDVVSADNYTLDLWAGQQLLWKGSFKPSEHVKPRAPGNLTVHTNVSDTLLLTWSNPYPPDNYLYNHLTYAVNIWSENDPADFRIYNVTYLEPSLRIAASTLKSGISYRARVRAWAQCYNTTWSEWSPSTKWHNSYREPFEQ

B1: AbD (antibody, human IgG1, V domains shown)
VH: QVQLQESGPGLVKPSETLSLTCAVSGYSISSGYYWGWIRQPPGKGLEWIGSISHTGNTYYNPPLKSRVTISVDTSKNQFSLKLSSVTAADTAVYYCARGGGISRPEYWGQGTLVTVSS
VL: SSELTQDPAVSVALGQTVRITCQGDSLRTYYASWYQQKPGQAPVLVIYGKHKRPSGIPDRFSGSSSGNTASLTITGAQAEDEADYYCVTRNRYGNPHVLFGGGTQLTVL
notes: Full-length human IgG1 / human lambda, transient, conditioned medium; Framework limits derived; also called VHP/VL13
[1]
  EC50 (read off the curve): ~1 nM
[2]
  A450 at 13 nM Ab in cell ELISA: 1.25 A450
[3]
  A450 at 13 nM Ab in cell ELISA: 1.38 A450
[4]
  A450 at 13 nM Ab in cell ELISA: 0.874 A450
[5]
  Human IL-21R-BaF3 Proliferation IC50: 0.91 nM
  Human IL-21R-TF1 Proliferation IC50: 2.67 nM
[6]
  Murine IL-21R-BaF3 Proliferation IC50: 0.01 nM

B2: AbO (antibody, human IgG1, V domains shown)
VH: QVQLQESGPGLVKPSETLSLTCAVSGYSISSGYYWGWIRQPPGKGLEWIGSISHTGNTYYNPPLKSRVTISVDTSKNQFSLKLSSVTAADTAVYYCARGGGISRPEYWGQGTLVTVSS
VL: SSELTQDPAVSVALGQTVRITCQGDSLRTYYASWYQQKPGQAPVLVIYGKHKRPSGIPDRFSGSSSGNTASLTITGAQAEDEADYYCVTRSAKGNPHVLFGGGTQLTVL
notes: Human IgG1 triple-mutant (L234A, L235A, G237A); Framework limits derived; also called VHP/VL16; VHPTM/VL16
[1]
  EC50 (read off the curve): ~0.3 nM
[7]
  Neutralization of T cell Proliferation IC50 (nM), human primary CD4+ T cells: 0.06 nM
Human IL-13-His/FLAG
  binding result: no binding (tested: 50 nM)
Human IL-2Rβ
  binding result: no binding (tested: 50 nM)
Human soluble IL-4R
  binding result: no binding (tested: 50 nM)
[2]
  A450 at 13 nM Ab in cell ELISA: 1.11 A450
[3]
  A450 at 13 nM Ab in cell ELISA: 1.36 A450
[8]
  A450 at 13 nM Ab in cell ELISA: 0.108 A450
[4]
  A450 at 13 nM Ab in cell ELISA: 1.1 A450
[5]
  Human IL-21R-BaF3 Proliferation IC50: 0.52 nM
  Human IL-21R-TF1 Proliferation IC50: 2.91 nM
[6]
  Murine IL-21R-BaF3 Proliferation IC50: 0.065 nM
[9]
  Neutralization of T cell Proliferation IC50 (nM), murine primary CD8+ T cells: 4.92 nM

B3: AbL (antibody, human IgG1, V domains shown)
VH: QVQLQESGPGLVKPSETLSLTCAVSGYSISSGYYWGWIRQPPGKGLEWIGSISHTGNTYYNPPLKSRVTISVDTSKNQFSLKLSSVTAADTAVYYCARFMGFGRPEYWGQGTLVTVSS
VL: SSELTQDPAVSVALGQTVRITCQGDSLRTYYASWYQQKPGQAPVLVIYGKHKRPSGIPDRFSGSSSGNTASLTITGAQAEDEADYYCVTRNRYGNPHVLFGGGTQLTVL
notes: Full-length human IgG1 / human lambda, transient, conditioned medium; Framework limits derived; also called VH3/VL13
[10]
  EC50 (read off the curve): ~0.8 nM
[2]
  A450 at 13 nM Ab in cell ELISA: 1.45 A450
[3]
  A450 at 13 nM Ab in cell ELISA: 1.51 A450
[4]
  A450 at 13 nM Ab in cell ELISA: 1.26 A450
[5]
  Human IL-21R-BaF3 Proliferation IC50: 0.68 nM
  Human IL-21R-TF1 Proliferation IC50: 4.25 nM
[6]
  Murine IL-21R-BaF3 Proliferation IC50: 0.227 nM

B4: AbQ (antibody, human IgG1, V domains shown)
VH: QVQLQESGPGLVKPSETLSLTCAVSGYSISSGYYWGWIRQPPGKGLEWIGSISHTGNTYYNPPLKSRVTISVDTSKNQFSLKLSSVTAADTAVYYCARFMGFGRPEYWGQGTLVTVSS
VL: SSELTQDPAVSVALGQTVRITCQGDSLRTYYASWYQQKPGQAPVLVIYGKHKRPSGIPDRFSGSSSGNTASLTITGAQAEDEADYYCVARSVVGNPHVLFGGGTQLTVL
notes: Purified form: human IgG1 double-mutant (L234A, G237A); Framework limits derived; also called VH3/VL2; VH3DM/VL2
[10]
  EC50 (read off the curve): ~0.6 nM
[7]
  Neutralization of T cell Proliferation IC50 (nM), human primary CD4+ T cells: 0.08 nM
[11]
  Neutralization of B cell proliferation IC50: 0.16 nM
Human IL-13-His/FLAG
  binding result: no binding (tested: 50 nM)
Human IL-2Rβ
  binding result: no binding (tested: 50 nM)
Human soluble IL-4R
  binding result: no binding (tested: 50 nM)
[2]
  A450 at 13 nM Ab in cell ELISA: 1.25 A450
[3]
  A450 at 13 nM Ab in cell ELISA: 1.31 A450
[8]
  A450 at 13 nM Ab in cell ELISA: 0.125 A450
[4]
  A450 at 13 nM Ab in cell ELISA: 1.16 A450
[5]
  Human IL-21R-BaF3 Proliferation IC50: 0.68 nM
  Human IL-21R-TF1 Proliferation IC50: 4.62 nM
[6]
  Murine IL-21R-BaF3 Proliferation IC50: 0.153 nM
[9]
  Neutralization of T cell Proliferation IC50 (nM), murine primary CD8+ T cells: 0.85 nM

B5: murine IL-21R-Fc (Fc fusion, not shown: a dimerising Fc or GST)
chain: not shown
Murine IL-21
  Murine IL-21R-BaF3 Neutralization IC50: 0.04 nM
